Measurements: publication PMC5138414, “Structural Basis for Redox Regulation of Cytoplasmic and Chloroplastic Triosephosphate Isomerases from Arabidopsis thaliana” (Frontiers in Plant Science, 2016)

How the values were obtained:
Test in all cases: SEC; analytical size-exclusion chromatography, Superdex 75 10/300GL, calibrated with Bio-Rad gel filtration standard, 0.5 mL/min, 100 mM TEA pH 7.4, 10 mM EDTA, 1 mM DTT; dimer of identical subunits
[1] = biological target: chloroplast triosephosphate isomerase from Arabidopsis thaliana, without the predicted chloroplast targeting sequence (Arabidopsis thaliana)
[2] = biological target: pdTPI-C15S (Arabidopsis thaliana)
[3] = biological target: pdTPI-C89S (Arabidopsis thaliana)
[4] = biological target: cytoplasmic triosephosphate isomerase from Arabidopsis thaliana (Arabidopsis thaliana) (UniProt P48491)
[5] = biological target: pdTPI-C15S/C89S (Arabidopsis thaliana)

Substance: chloroplast triosephosphate isomerase from Arabidopsis thaliana, without the predicted chloroplast targeting sequence (enzyme)
- stoichiometry N [1]: 2

Substance: pdTPI-C15S (enzyme)
- stoichiometry N [2]: 2

Substance: pdTPI-C89S (enzyme)
- stoichiometry N [3]: 2

Substance: cytoplasmic triosephosphate isomerase from Arabidopsis thaliana (from UniProt P48491 1-254) (enzyme)
- stoichiometry N [4]: 2

Substance: pdTPI-C15S/C89S (enzyme)
- stoichiometry N [5]: 2
